Reference: patent US6479055

Target: viral gp41 (HIV-1 transmembrane protein) of HIV-1IIIB (HIV-1IIIB) (UniProt P03377)
Experiment: cell-based or functional assay

Point of comparison: “M41-P (M41 with an Ile to Pro mutation at position 578) (from UniProt P0AEX9 27-392; P03377 540-686)”, Cell fusion (IC90) 0.083 µM. Against it:
- DP107 (SEQ ID NO:25), synthetic peptide of residues 558 to 595 of HIV-1LAI gp41 — 12-fold higher, 1 µM
- DP178 (SEQ ID NO:1), synthetic peptide of amino acids 638 to 673 of HIV-1LAI gp41 — 83-fold lower, 0.001 µM
- M41 (maltose binding protein fused to the extracellular domain of HIV-1 gp41, residues 540-686) (from UniProt P0AEX9 27-392; P03377 540-686) — higher, > 50 µM
- M41-PΔ178 (M41-P from which the DP-178 region has been deleted; gp41 amino acids 540-642 with Ile578Pro) (from UniProt P03377 540-642) — higher, > 50 µM

Point of comparison: “DP178 (SEQ ID NO:1), synthetic peptide of amino acids 638 to 673 of HIV-1LAI gp41”, HIV infectivity (IC90) 0.08 µM. Against it:
- DP107 (SEQ ID NO:25), synthetic peptide of residues 558 to 595 of HIV-1LAI gp41 — 12-fold higher, 1 µM
- M41 (maltose binding protein fused to the extracellular domain of HIV-1 gp41, residues 540-686) (from UniProt P0AEX9 27-392; P03377 540-686) — higher, > 16 µM
- M41-P (M41 with an Ile to Pro mutation at position 578) (from UniProt P0AEX9 27-392; P03377 540-686) — within 1.5-fold, 0.066 µM
- M41-PΔ178 (M41-P from which the DP-178 region has been deleted; gp41 amino acids 540-642 with Ile578Pro) (from UniProt P03377 540-642) — higher, > 8 µM
